The values that follow come from patent US20220056087A1 (GLIKNIK, published 2022).

The term Kd denotes the equilibrium constant for the complex coming apart. One may read the kon as a measure of how fast the partners come together.

B1: mouse IgG2a Fc homodimers (other, UniProt P01863 98-330, looked up)
chain: EPRGPTIKPCPPCKCPAPNLLGGPSVFIFPPKIKDVLMISLSPIVTCVVVDVSEDDPDVQISWFVNNVEVHTAQTQTHREDYNSTLRVVSALPIQHQDWMSGKEFKCKVNNKDLPAPIERTISKPKGSVRAPQVYVLPPPEEEMTKKQVTLTCMVTDFMPEDIYVEWTNNGKTELNYKNTEPVLDSDGSYFMYSKLRVEKKNWVERNSYSCSVVHEGLHNHHTTKSFSRTPGK
notes: domain: Fc; also called IgG2a controls; IgG2a Fc control
B11: mouse FcγRIIIA (immobilized on CM4 chip) (receptor, UniProt P08508 31-215, looked up)
chain: ALPKAVVKLDPPWIQVLKEDMVTLMCEGTHNPGNSSTQWFHNGRSIRSQVQASYTFKATVNDSGEYRCQMEQTRLSDPVDLGVISDWLLLQTPQRVFLEGETITLRCHSWRNKLLNRISFFHNEKSVRYHHYKSNFSIPKANHSHSGDYYCKGSLGSTQHQSKPVTITVQDPATTSSISLVWYHT
notes: also called mouse FcγR3A
B13: mouse FcγRIIB (immobilized on CM4 chip) (receptor, UniProt P08101 30-207, looked up)
chain: THDLPKAVVKLEPPWIQVLKEDTVTLTCEGTHNPGNSSTQWFHNGRSIRSQVQASYTFKATVNDSGEYRCQMEQTRLSDPVDLGVISDWLLLQTPQLVFLEGETITLRCHSWRNKLLNRISFFHNEKSVRYHHYSSNFSIPKANHSHSGDYYCKGSLGRTLHQSKPVTITVQGPKSSR
notes: also called mouse FcγR2b

The target in assay [1] is T1, mouse SIGN-R1 (immobilized on CM4 chip) (mouse, UniProt Q8CJ91 74-325, limits assumed).
T1 sequence (looked up): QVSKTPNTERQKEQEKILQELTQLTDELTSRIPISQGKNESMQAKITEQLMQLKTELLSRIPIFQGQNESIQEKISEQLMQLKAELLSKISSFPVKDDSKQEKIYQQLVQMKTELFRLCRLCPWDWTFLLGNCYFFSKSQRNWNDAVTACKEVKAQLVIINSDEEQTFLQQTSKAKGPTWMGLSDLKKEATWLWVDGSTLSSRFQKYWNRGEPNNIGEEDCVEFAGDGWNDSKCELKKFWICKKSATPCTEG
In words: SPR (Biacore) as in Example 4, SIGN-R1 on the chip; the sheet itself says the value cannot be accurately calculated; traces flat. The procedure: (§1) FcγRIIIA, FcγRIIB and SIGN-R1 receptors were immobilized to a CM4 chip using amine immobilization to 560, 500, and 1000RU, respectively to compensate for protein size.
(§2) Regeneration was achieved by a 10 sec injection of 1M MgCl at 100 ul/min, followed by a brief wash with running buffer. KDs were calculated using T100 evaluation software.
(§3) M045F was first gel fractionated using an AktaXpress protein purification system and a GE HiLoad 16/60 Superdex 200 prep grade column.

Assay [2] concerns the target B13. In words: SPR (Biacore), receptor amine-coupled to a CM4 chip, analyte 500 nM to 1.9 nM; panel 'Mse FcR2B'. As to the method:
as §1, §2
(Surface plasmon resonance follows binding to a sensor surface in real time, without labels.)

Assay [3] concerns the target T1, mouse SIGN-R1 (immobilized on CM4 chip). As to the kind of experiment: SPR (Biacore), receptor amine-coupled to a CM4 chip, analyte 500 nM to 1.9 nM; panel 'Mse SIGN-R1'. The procedure:
as §1, §2

For assay [4] the target is unchanged. As to the kind of experiment: SPR (Biacore) as in Example 4, SIGN-R1 on the chip. As to the method:
as §1, §2, §3

For assay [5], the target named is B11. As to the kind of experiment: SPR (Biacore), receptor amine-coupled to a CM4 chip, analyte 500 nM to 1.9 nM; panel 'Mse FcR3A'. As to the method:
as §1, §2

For a further assay, the target named is T2, G001 (native IgG1 Fc) (human, UniProt P01857-1 99-330 = IgG part).
T2 construct: domain: Fc; also called IgG1 Fc control; homodimeric monomer of IgG1 Fc
In words: BLI (Octet 96 Red), receptor on sensor, G001 in solution. As to the method: For binding analysis of mouse protein, His-tagged mouse FcγRII (R&D system cat #1460-CD) and FcγRIII R&D system cat #1960) were separately loaded on anti-penta-His Biosensors (ForteBio cat #18-5077) at 10 ug/ml in 1× kinetic analysis buffer (ForteBio cat #18-5032). For binding analysis of human protein, His-tagged human FcγRIIb (R&D system cat #1875-CD) and FcγRIIIa R&D system cat #4325-Fc) were separately loaded on anti-penta-His Biosensors (ForteBio cat #18-5077) at 10 ug/ml in 1× kinetic analysis buffer (ForteBio cat #18-5032). Following sensor tip loading protein association was measured by transfer of tips to preparations of either monomeric fraction (over a range of concentrations) or the multimeric fractions (over a range of concentrations) in 1× kinetics analysis buffer and dissociation was measured by transfer of sensor tips to 1× kinetics buffer. Analysis was as described (Data Analysis User Guide 6.4ForteBio). Analysis was standardized as described above assigning a MW of 50 kD to homodimers and 150 kD to all other protein preparations.
(Biolayer interferometry detects binding as a change in optical thickness at a sensor tip.)

Assay [6] deals with T1, mouse SIGN-R1 (immobilized on CM4 chip). In words: SPR (Biacore) as in Example 4, SIGN-R1 on the chip; the sheet itself says the value cannot be accurately calculated; traces nearly flat. As to the method: as §1, §2, §3
In assay [7] the target is B1. In words: SPR (Biacore), receptor amine-coupled to a CM4 chip; panel 'Mse FcR3A'. As to the method: as §1, §2
For assay [8], the target named is B1. As to the kind of experiment: SPR (Biacore), receptor amine-coupled to a CM4 chip; panel 'Mse FcR2B'. As to the method: as §1, §2

Consider B1, for which, in [1], the Kd was 132 nM.

B2: M019 stradomer (Fc fusion)
chain: ERKCCVECPPCPEPRGPTIKPCPPCKCPAPNLLGGPSVFIFPPKIKDVLMISLSPIVTCVVVDVSEDDPDVQISWFVNNVEVHTAQTQTHREDYNSTLRVVSALPIQHQDWMSGKEFKCKVNNKDLPAPIERTISKPKGSVRAPQVYVLPPPEEEMTKKQVTLTCMVTDFMPEDIYVEWTNNGKTELNYKNTEPVLDSDGSYFMYSKLRVEKKNWVERNSYSCSVVHEGLHNHHTTKSFSRTPGK
notes: Murine counterpart of G019 (N-terminal IgG2 hinge multimerization domain); The entry may include a leader
Molecule B2 yielded a Kd in assay [2] of 45.3 nM. The binding result in [3] is recorded as “binds”.

B3: M028 stradomer (Fc fusion)
chain: SIKQIEDKIEEILSKIYHIENEIARIKKLIGERGEPRGPTIKPCPPCKCPAPNLLGGPSVFIFPPKIKDVLMISLSPIVTCVVVDVSEDDPDVQISWFVNNVEVHTAQTQTHREDYNSTLRVVSALPIQHQDWMSGKEFKCKVNNKDLPAPIERTISKPKGSVRAPQVYVLPPPEEEMTKKQVTLTCMVTDFMPEDIYVEWTNNGKTELNYKNTEPVLDSDGSYFMYSKLRVEKKNWVERNSYSCSVVHEGLHNHHTTKSFSRTPGK
notes: Murine counterpart of G028 (N-terminal isoleucine zipper); The entry may include a leader
B3: the results for the Kd in [4] and in [5] were 638 nM and 18.7 nM, respectively.

B4: Cynomolgus FcγRIIIa (receptor, UniProt Q8SPW2 17-208, looked up)
chain: GMRAEDLPKAVVFLEPQWYRVLEKDRVTLKCQGAYSPEDNSTRWFHNESLISSQTSSYFIAAARVNNSGEYRCQTSLSTLSDPVQLEVHIGWLLLQAPRWVFKEEESIHLRCHSWKNTLLHKVTYLQNGKGRKYFHQNSDFYIPKATLKDSGSYFCRGLIGSKNVSSETVNITITQDLAVSSISSFFPPGYQ
In turn, B4 showed an on-rate (kon) in the assay with G001 (native IgG1 Fc) of 124000 M⁻¹ s⁻¹.

B5: His-tagged human FcγRIIb (R&D system cat #1875-CD) (receptor, UniProt P31994 46-217, looked up)
chain: APPKAVLKLEPQWINVLQEDSVTLTCRGTHSPESDSIQWFHNGNLIPTHTQPSYRFKANNNDSGEYTCQTGQTSLSDPVHLTVLSEWLVLQTPHLEFQEGETIVLRCHSWKDKPLVKVTFFQNGKSKKFSRSDPNFSIPQANHSHSGDYHCTGNIGYTLYSSKPVTITVQAP
notes: Bought protein
For the molecule B5, the dissociation constant (Kd) with G001 (native IgG1 Fc) was found to be 1310 nM.

B6: M045c stradomer (Fc fusion)
chain: DEPRGPTIKPCPPCKCPAPNLLGGPSVFIFPPKIKDVLMISLSPIVTCVVVDVSEDDPDVQISWFVNNVEVHTAQTQTHREDYNSTLRVVSALPIQHQDWMSGKEFKCKVNNKDLPAPIERTISKPKGSVRAPQVYVLPPPEEEMTKKQVTLTCMVTDFMPEDIYVEWTNNGKTELNYKNTEPVLDSDGSYFMYSKLRVEKKNWVERNSYSCSVVHEGLHNHHTTKSFSRTPGKERKCCVECPPCP
notes: Murine counterpart of G045c; The entry may include a leader that is cleaved from the secreted protein; Mix of homodimers and multimers
In [4], B6 had an equilibrium dissociation constant (Kd) of 334 nM.

B7: M045 F1 (highest molecular weight multimer fraction of M045c) (Fc fusion)
chain: DEPRGPTIKPCPPCKCPAPNLLGGPSVFIFPPKIKDVLMISLSPIVTCVVVDVSEDDPDVQISWFVNNVEVHTAQTQTHREDYNSTLRVVSALPIQHQDWMSGKEFKCKVNNKDLPAPIERTISKPKGSVRAPQVYVLPPPEEEMTKKQVTLTCMVTDFMPEDIYVEWTNNGKTELNYKNTEPVLDSDGSYFMYSKLRVEKKNWVERNSYSCSVVHEGLHNHHTTKSFSRTPGKERKCCVECPPCP
notes: The entry may include a leader; also called Fraction 1; M045 Fraction 1
In the case of B7, binding in assay [4] was put at a Kd of 90.9 nM.

B8: M045 F3 (Fc fusion)
stradomer monomer: DEPRGPTIKPCPPCKCPAPNLLGGPSVFIFPPKIKDVLMISLSPIVTCVVVDVSEDDPDVQISWFVNNVEVHTAQTQTHREDYNSTLRVVSALPIQHQDWMSGKEFKCKVNNKDLPAPIERTISKPKGSVRAPQVYVLPPPEEEMTKKQVTLTCMVTDFMPEDIYVEWTNNGKTELNYKNTEPVLDSDGSYFMYSKLRVEKKNWVERNSYSCSVVHEGLHNHHTTKSFSRTPGKERKCCVECPPCP
notes: also called homodimer fraction of M045
Consider B8, for which the equilibrium dissociation constant (Kd) in assay [6] was 11000 nM.

B9: M045 F2 (Fc fusion)
stradomer monomer: DEPRGPTIKPCPPCKCPAPNLLGGPSVFIFPPKIKDVLMISLSPIVTCVVVDVSEDDPDVQISWFVNNVEVHTAQTQTHREDYNSTLRVVSALPIQHQDWMSGKEFKCKVNNKDLPAPIERTISKPKGSVRAPQVYVLPPPEEEMTKKQVTLTCMVTDFMPEDIYVEWTNNGKTELNYKNTEPVLDSDGSYFMYSKLRVEKKNWVERNSYSCSVVHEGLHNHHTTKSFSRTPGKERKCCVECPPCP
notes: also called lower molecular weight multimer fraction of M045
With B9, in assay [4], binding was put at a Kd of 91.2 nM.

B10: Cynomolgus FcγRIIb (receptor)
chain: TPAAPPKAVLKLEPPWINVLREDSVTLTCGGAHSPDSDSTQWFHNGNLIPTHTQPSYRFKANNNDSGEYRCQTGRTSLSDPVHLTVLSEWLALQTPHLEFREGETIMLRCHSWKDKPLIKVTFFQNGKSKKFSHMDPNFSIPQANHSHSGDYHCTGNIGYTPYSSKPVTITVQVP
On to B10, for which binding with G001 (native IgG1 Fc) was put at a Kd of 2040 nM. On to B11, for which the affinity in assay [7], expressed as Kd, was 80.1 nM.

B12: His-tagged mouse FcγRIII (R&D system cat #1960) (receptor, UniProt P08508 31-215, looked up)
chain: ALPKAVVKLDPPWIQVLKEDMVTLMCEGTHNPGNSSTQWFHNGRSIRSQVQASYTFKATVNDSGEYRCQMEQTRLSDPVDLGVISDWLLLQTPQRVFLEGETITLRCHSWRNKLLNRISFFHNEKSVRYHHYKSNFSIPKANHSHSGDYYCKGSLGSTQHQSKPVTITVQDPATTSSISLVWYHT
notes: Bought protein; also called Mouse FcyRIII
B12 had a dissociation constant (Kd) with G001 (native IgG1 Fc) of 4180 nM. Molecule B13 showed a Kd in assay [8] of 642 nM.

B14: His-tagged mouse FcγRII (R&D system cat #1460-CD) (receptor, UniProt P08101 30-207, looked up)
chain: THDLPKAVVKLEPPWIQVLKEDTVTLTCEGTHNPGNSSTQWFHNGRSIRSQVQASYTFKATVNDSGEYRCQMEQTRLSDPVDLGVISDWLLLQTPQLVFLEGETITLRCHSWRNKLLNRISFFHNEKSVRYHHYSSNFSIPKANHSHSGDYYCKGSLGRTLHQSKPVTITVQGPKSSR
notes: Bought protein; also called Mouse FcγRIIb; Mouse FcyRII
In the assay with G001 (native IgG1 Fc), B14 returned a Kd of 1510 nM.
